Measurements: patent publication US9176064B2, “Bisubstrate fluorescent probes for protein kinase CK2” (University of Tartu, priority 2012, dated 2015)
Where a SMILES comes first, the peptide text is derived from it. [ ]: non-standard residue; d: D form. The star is where a group is joined. X1 = O=C(CCCCCCCn1cnc2c(Br)c(Br)c(Br)c(Br)c21)*

Tests used:
Assay in all cases: Kinase panel residual activity
Format in all cases: biochemical
Conditions in all cases: compound at 1 micromolar
PIM1 = PIM1 (Homo sapiens, UniProt P11309)
HIPK1 = HIPK1 (Homo sapiens, UniProt Q86Z02)
MARK3 = MARK3 (Homo sapiens, UniProt P27448)
SIK3 = SIK3 (Homo sapiens, UniProt Q9Y2K2)
MARK1 = MARK1 (Homo sapiens, UniProt Q9P0L2)
TSSK1 = molecular target: T1, TSSK1 (Homo sapiens, UniProt Q9BXA7)
T1 sequence (Q9BXA7 1-367): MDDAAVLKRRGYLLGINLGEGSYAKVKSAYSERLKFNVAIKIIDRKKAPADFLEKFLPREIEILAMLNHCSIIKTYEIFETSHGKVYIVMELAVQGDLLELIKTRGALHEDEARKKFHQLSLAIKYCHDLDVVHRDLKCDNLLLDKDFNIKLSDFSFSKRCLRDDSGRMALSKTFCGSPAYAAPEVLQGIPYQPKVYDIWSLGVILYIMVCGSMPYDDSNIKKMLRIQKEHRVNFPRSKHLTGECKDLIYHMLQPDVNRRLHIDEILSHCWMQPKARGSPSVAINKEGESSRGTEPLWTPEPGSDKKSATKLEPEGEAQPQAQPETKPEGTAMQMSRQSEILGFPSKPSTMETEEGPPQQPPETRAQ

MLK3 = MLK3 (Homo sapiens, UniProt Q16584)
BRSK1 = molecular target: T2, BRSK1 (Homo sapiens, UniProt Q8TDC3)
T2 sequence (Q8TDC3 1-778): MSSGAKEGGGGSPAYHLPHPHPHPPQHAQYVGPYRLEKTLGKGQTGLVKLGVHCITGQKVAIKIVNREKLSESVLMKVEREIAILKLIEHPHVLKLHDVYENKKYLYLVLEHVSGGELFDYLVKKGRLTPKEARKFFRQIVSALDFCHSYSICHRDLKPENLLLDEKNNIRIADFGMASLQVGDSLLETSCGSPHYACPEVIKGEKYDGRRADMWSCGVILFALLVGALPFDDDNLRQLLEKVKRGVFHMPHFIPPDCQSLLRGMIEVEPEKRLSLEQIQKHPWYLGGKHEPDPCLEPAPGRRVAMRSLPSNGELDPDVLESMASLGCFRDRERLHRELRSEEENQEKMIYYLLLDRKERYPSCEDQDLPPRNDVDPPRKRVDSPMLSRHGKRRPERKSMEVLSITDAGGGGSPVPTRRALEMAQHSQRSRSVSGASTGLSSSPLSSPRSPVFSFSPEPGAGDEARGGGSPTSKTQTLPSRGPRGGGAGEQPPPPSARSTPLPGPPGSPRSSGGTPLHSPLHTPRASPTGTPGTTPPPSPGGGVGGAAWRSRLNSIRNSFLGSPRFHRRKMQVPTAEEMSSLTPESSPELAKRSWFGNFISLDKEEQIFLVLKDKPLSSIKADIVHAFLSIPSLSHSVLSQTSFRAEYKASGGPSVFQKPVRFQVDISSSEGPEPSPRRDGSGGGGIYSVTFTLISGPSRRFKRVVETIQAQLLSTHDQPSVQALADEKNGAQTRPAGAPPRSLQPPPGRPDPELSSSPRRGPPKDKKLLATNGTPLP

CHK2 = CHK2 (Homo sapiens, UniProt O96017)
PKCγ = PKCγ (Homo sapiens, UniProt P05129)
EPH-B2 = molecular target: T3, EPH-B2 (Homo sapiens, UniProt P29323)
T3 sequence (P29323 19-1055): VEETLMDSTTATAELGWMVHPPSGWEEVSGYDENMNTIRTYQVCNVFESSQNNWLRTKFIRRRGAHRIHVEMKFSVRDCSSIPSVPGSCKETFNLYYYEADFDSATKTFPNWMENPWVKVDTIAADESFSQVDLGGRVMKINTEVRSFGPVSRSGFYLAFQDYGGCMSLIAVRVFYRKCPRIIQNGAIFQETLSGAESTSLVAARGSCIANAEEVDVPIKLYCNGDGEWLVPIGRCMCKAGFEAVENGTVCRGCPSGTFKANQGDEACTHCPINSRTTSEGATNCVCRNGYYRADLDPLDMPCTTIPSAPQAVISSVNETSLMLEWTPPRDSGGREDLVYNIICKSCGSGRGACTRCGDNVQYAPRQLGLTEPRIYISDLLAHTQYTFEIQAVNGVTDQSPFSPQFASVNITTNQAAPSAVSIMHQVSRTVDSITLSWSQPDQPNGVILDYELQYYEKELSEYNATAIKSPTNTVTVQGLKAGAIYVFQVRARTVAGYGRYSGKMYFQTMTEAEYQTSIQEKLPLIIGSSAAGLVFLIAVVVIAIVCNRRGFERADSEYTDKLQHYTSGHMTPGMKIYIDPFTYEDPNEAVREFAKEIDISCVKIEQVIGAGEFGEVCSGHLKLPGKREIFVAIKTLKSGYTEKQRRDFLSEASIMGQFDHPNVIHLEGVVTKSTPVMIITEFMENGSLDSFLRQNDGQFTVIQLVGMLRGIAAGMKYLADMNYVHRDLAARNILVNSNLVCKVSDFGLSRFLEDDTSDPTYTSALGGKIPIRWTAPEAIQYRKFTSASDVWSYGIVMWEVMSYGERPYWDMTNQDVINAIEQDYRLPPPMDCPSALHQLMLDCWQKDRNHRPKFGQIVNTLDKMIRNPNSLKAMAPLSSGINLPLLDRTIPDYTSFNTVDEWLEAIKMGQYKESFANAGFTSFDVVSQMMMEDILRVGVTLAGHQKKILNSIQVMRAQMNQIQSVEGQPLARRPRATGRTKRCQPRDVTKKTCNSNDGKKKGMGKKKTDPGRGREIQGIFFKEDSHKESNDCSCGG

MST4 = MST4 (Homo sapiens, UniProt Q9P289)
p38b MAPK = p38b MAPK (Homo sapiens, UniProt Q15759)
Chain of p38b MAPK (Q15759 whole entry): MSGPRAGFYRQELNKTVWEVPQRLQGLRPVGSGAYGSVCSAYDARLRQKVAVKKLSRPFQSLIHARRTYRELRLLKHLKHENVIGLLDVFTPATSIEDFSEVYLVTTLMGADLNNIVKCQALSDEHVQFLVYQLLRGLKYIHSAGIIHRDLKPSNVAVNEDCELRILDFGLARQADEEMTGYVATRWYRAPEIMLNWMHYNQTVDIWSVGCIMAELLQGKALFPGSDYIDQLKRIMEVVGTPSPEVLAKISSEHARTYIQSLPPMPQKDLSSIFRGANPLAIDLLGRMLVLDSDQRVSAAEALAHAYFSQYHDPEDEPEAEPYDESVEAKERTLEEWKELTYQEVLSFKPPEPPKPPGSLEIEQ

Chain of MARK3 (P27448 whole entry, species assumed): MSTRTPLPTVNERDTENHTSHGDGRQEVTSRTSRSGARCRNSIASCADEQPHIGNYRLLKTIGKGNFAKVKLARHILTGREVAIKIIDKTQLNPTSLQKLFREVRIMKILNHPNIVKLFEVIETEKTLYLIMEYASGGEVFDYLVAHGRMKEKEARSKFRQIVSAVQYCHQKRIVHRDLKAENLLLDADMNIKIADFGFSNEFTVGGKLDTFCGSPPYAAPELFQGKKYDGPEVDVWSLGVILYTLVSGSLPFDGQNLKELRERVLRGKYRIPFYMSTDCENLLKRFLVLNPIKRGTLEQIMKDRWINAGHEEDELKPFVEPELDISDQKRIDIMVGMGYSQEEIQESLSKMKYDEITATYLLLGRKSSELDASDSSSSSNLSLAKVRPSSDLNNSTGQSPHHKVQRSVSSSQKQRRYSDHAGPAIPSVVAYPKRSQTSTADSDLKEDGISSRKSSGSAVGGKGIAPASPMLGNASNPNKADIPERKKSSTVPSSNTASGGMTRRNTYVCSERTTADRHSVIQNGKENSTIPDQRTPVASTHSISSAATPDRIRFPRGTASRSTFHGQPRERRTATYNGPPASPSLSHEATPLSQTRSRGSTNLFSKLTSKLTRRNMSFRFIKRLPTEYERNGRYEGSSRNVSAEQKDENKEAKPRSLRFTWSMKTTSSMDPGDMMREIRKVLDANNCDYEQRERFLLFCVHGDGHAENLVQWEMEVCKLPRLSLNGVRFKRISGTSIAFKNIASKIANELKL
Chain of MLK3 (Q16584 whole entry, species assumed): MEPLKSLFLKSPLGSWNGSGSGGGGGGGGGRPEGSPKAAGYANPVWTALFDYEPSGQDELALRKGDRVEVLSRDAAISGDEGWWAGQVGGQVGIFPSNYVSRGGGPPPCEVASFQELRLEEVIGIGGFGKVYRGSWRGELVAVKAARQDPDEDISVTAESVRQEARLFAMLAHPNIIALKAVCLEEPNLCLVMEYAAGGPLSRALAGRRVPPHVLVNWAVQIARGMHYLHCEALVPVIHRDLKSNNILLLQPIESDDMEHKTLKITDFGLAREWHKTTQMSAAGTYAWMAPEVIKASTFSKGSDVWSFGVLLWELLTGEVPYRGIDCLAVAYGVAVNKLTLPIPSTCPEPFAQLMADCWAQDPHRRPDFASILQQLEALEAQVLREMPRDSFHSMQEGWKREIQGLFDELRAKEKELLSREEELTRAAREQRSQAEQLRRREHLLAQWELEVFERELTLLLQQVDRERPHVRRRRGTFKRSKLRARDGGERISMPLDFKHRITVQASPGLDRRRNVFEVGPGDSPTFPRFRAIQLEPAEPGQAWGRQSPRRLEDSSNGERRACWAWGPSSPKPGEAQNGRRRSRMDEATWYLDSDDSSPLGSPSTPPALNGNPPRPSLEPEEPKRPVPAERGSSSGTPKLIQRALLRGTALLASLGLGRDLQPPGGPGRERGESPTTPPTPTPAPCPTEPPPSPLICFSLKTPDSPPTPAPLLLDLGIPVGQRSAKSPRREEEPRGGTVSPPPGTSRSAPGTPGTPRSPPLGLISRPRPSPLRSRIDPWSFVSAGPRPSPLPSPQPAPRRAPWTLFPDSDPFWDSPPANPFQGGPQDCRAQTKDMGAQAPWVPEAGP
Chain of MARK1 (Q9P0L2 whole entry, species assumed): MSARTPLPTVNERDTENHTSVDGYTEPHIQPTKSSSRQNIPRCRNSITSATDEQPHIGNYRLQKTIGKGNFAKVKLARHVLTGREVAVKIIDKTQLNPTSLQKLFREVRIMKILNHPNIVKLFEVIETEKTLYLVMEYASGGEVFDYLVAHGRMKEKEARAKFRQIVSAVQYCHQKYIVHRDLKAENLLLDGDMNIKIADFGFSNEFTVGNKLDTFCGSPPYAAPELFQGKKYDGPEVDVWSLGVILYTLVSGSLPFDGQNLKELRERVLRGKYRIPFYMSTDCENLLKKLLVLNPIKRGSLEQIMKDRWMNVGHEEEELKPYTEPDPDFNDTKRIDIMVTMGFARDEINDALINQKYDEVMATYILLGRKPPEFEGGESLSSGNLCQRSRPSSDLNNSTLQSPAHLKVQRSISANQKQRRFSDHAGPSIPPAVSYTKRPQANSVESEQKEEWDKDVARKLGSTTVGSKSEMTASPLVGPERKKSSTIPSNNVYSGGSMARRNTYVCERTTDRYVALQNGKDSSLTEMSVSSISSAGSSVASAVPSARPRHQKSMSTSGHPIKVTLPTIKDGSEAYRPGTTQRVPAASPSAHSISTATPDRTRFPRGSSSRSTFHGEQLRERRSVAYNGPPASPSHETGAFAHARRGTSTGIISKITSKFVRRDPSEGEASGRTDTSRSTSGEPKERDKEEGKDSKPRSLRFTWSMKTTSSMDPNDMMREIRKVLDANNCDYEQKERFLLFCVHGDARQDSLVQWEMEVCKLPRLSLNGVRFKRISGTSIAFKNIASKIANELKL
Chain of SIK3 (Q9Y2K2 whole entry, species assumed): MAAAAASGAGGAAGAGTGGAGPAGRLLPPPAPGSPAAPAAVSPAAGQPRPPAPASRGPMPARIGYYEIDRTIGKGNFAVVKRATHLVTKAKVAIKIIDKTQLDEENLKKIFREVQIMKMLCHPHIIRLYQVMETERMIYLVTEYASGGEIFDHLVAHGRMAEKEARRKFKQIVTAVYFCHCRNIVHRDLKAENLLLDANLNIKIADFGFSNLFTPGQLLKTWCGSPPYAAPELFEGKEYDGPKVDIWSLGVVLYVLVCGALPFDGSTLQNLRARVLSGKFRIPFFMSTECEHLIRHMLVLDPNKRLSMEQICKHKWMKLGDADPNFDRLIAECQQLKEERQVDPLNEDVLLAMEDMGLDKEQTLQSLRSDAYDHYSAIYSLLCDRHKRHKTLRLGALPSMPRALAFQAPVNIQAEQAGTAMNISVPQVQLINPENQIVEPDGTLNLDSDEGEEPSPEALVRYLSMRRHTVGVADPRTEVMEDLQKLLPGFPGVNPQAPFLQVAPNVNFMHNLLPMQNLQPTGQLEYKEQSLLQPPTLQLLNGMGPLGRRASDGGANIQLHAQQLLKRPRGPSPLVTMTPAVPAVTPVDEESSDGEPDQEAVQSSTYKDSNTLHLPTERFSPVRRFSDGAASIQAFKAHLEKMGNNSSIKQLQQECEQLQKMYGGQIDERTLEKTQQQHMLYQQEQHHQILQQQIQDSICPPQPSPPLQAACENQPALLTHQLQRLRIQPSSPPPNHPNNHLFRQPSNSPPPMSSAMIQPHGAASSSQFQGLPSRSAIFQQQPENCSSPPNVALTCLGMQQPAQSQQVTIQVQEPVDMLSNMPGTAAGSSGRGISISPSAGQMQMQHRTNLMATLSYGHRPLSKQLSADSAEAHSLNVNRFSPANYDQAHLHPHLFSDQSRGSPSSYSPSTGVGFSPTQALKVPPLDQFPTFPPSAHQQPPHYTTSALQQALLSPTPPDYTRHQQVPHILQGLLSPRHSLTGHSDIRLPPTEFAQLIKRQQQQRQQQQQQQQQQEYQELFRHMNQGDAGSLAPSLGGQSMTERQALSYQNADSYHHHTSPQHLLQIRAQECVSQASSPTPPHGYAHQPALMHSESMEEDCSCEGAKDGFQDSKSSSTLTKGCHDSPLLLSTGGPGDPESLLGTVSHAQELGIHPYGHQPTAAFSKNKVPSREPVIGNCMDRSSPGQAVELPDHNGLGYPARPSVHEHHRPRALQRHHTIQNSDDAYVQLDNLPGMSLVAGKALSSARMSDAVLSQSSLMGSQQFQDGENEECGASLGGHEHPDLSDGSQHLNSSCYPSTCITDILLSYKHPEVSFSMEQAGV

`NCCCC[C@H](NC(=O)[C@H](CC(=O)O)NC(=O)[C@H](CC(=O)O)NC(=O)[C@H](CC(=O)O)NC(=O)[C@H](CC(=O)O)NC(=O)[C@H](CC(=O)O)NC(=O)[C@@H](CC(=O)O)NC(=O)CCCCCCCn1cnc2c(Br)c(Br)c(Br)c(Br)c21)C(=O)O` [TBBI-OcA-(D-Asp)-(L-Asp)5-(L-Lys)-OH] (X1-[dD]DDDDDK-OH) showed a remaining activity at 1 µM (PIM1) of 62%, a remaining activity at 1 µM (HIPK1) of 68% and a remaining activity at 1 µM (MARK3) of 73%. It also gave a remaining activity at 1 µM (SIK3) of 74%, a remaining activity at 1 µM (MARK1) of 83% and a remaining activity at 1 µM (TSSK1) of 86%. For the same compound, the remaining activity at 1 µM (MLK3) was 89%, the remaining activity at 1 µM (BRSK1) was 95% and the remaining activity at 1 µM (CHK2) was 101%. It also gave a remaining activity at 1 µM (PKCγ) of 106%, a remaining activity at 1 µM (EPH-B2) of 113% and a remaining activity at 1 µM (MST4) of 114%. For the same compound, the remaining activity at 1 µM (p38b MAPK) was 122%.
